Assay results taken from patent US20100166708A1, “ANTIMICROBIAL AND ANTI-INFLAMMATORY THERAPIES AND COMPOSITIONS” (THE REGENTS OF THE UNIVERSITY OF CALIFORNIA, priority 2007, published 2010).

Key:
[1] = molecular target: delta-haemolysin (Staphylococcus epidermidis); test: tryptophan fluorescence, urea dissociation of peptide complexes, 25 µM peptide
[2] = molecular target: delta-haemolysin (Staphylococcus epidermidis); test: tryptophan fluorescence, urea dissociation of peptide complexes, 5 µM peptide
[3] = molecular target: phenol soluble modulin-delta (Staphylococcus epidermidis); test: cell-based or functional assay

Substance: delta-haemolysin (peptide)
- deltaG^1(H2O) [1]: 1.57 kcal/mol
- deltaG^1(H2O) [2]: 1.43 kcal/mol
- MIC of delta-haemolysin against GAS in the presence of 2 µM PSMdelta [3]: 4 µM
